T1: SLC6A6 extracellular region partial protein (E. coli recombinant, amino acid residues 143 to 216, C-terminal … (human, UniProt P31641 143-216))
T1 construct: also called partial protein of the extracellular region of SLC6A6; SLC6A6 partial protein for screening
T1 sequence: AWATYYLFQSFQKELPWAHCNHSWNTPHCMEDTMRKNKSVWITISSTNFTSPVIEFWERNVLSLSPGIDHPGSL

T2: SLC6A6 (solute carrier family 6 (neurotransmitter transporter, taurine), member 6), human, native on the cell … (human, UniProt P31641 1-620)
T2 construct: also called native SLC6A6; taurine transporter
T2 sequence: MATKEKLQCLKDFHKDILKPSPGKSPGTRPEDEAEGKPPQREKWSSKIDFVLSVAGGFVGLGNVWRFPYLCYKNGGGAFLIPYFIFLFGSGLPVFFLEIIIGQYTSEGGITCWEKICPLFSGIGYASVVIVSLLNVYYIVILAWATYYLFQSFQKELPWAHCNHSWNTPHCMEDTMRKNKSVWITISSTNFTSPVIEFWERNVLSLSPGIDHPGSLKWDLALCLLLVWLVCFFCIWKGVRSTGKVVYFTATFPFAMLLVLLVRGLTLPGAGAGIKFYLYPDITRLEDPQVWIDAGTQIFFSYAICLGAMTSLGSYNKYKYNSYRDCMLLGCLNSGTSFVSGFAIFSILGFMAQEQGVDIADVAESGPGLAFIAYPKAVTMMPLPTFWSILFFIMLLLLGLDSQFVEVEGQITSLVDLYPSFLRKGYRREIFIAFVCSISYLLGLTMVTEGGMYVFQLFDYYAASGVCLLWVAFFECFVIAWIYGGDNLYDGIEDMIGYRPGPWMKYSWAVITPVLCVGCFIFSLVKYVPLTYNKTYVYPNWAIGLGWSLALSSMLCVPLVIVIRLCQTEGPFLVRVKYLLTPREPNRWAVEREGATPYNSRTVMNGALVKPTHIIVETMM


How the values were obtained:
[1] = biological target: T1, SLC6A6 extracellular region partial …; test: competition inhibition test; 402 at 10 ug/mL pre-incubated with recombinant SLC6A6 extracellular region partial protein at 15 ug/mL, read out by immunofluorescence on HCT116 cells
[2] = biological target: T2, SLC6A6 (solute carrier family 6 …); test: flow cytometry on HCT116 cells
[3] = biological target: T2, SLC6A6 (solute carrier family 6 …); test: flow cytometry on 293T cells (express SLC6A6), antibody 10 ug/mL
[4] = biological target: T2, SLC6A6 (solute carrier family 6 …); test: flow cytometry on HCT116 cells, antibody 10 ug/mL
[5] = biological target: T2, SLC6A6 (solute carrier family 6 …); test: immunohistochemistry on breast cancer and uterine cancer tissue sections

| Binder | binding result [2] | further results |
| --- | --- | --- |
| monoclonal antibody produced by mouse-mouse hybridoma 402 (antibody, V domains shown, Mouse IgG from the hybridoma) VH: VKLQQSGPELVKPGASVKVSCTASGYAFTQYNLYWVKLRHGKCPKWIGSIDPYIGGTTYNQQFKDKVTLTVDKSSSTAYLHLNSLTSEDSAIYYCARWWDGYFDVWGAGTTVTVSS VL: QIVLTQSPAIMSASLGERVTLTCTASSSVISRYLHWYQVKPGSSPKLWIYSTSNLASGVPTRFSGSGSGTSYSLTISNMEAEDAATYYCHQYHRSPLTFGAGTKLELT | binds | binding result [1]: binds |
| monoclonal antibody produced by mouse-mouse hybridoma 430 (antibody, V domains shown, Mouse IgG from the hybridoma; also called antibody clone 430; 430 antibody) VH: IQLQQSGPEVVKPGTSVRVSCTASGYAFTQYNLYWVKLRHGKCPKWIGSIDPYIGGANYNQQFKDKVTLTVDKSSSTAYLHLNSLTSEDSAIYYCARWWDGYFDVWGAGTTVTVSS VL: QIVLTQSPAIMSASLGERVTMTCTASSSVSFRYLHWYQVKPGSSPKLWIYSTSNLASGVPSRISGSGSGTSYFLTISNMEAEDAATYYCHQYHRSPLTFGAGTKLELT | binds |  |
| monoclonal antibody produced by mouse-mouse hybridoma 419 (antibody, V domains shown, Mouse IgG from the hybridoma) VH: IQLQQSGPELVKPGASVKVSCKAFGYAFTRHNMYWVKQRHGKCLEWIGYIDPFNGGTSYNQKFKGKATLTVDKSSSTAYMHLNSLTSEDSAVYYCARVYGNYAWFAYWGQGTLVTVSA VL: DIVMTQSHKFMSTSVGDRVSITCKASQDVSTAVAWYQQIPGQSPKLLIYSSSYRYTGVPDRFTGSGSGTDFTFTISSVQAEDLAVYYCQQHYNTPWTFGGGTKLEIK |  | binding result [3]: binds |
| antibody clone 402 human-mouse chimeric antibody (antibody, human IgG1, kappa, V domains shown, Human IgG1 heavy chain constant region and human kappa constant region, expressed in Expi293F cells; also called c402 mAb) VH: QVKLQQSGPELVKPGASVKVSCTASGYAFTQYNLYWVKLRHGKCPKWIGSIDPYIGGTTYNQQFKDKVTLTVDKSSSTAYLHLNSLTSEDSAIYYCARWWDGYFDVWGAGTTVTVSS VL: QIVLTQSPAIMSASLGERVTLTCTASSSVISRYLHWYQVKPGSSPKLWIYSTSNLASGVPTRFSGSGSGTSYSLTISNMEAEDAATYYCHQYHRSPLTFGAGTKLELTR |  | binding result [4]: binds |
| monoclonal antibody produced by mouse-mouse hybridoma 205 (antibody, V domains shown, Mouse IgG from the hybridoma) VH: VKLQQSGPELVKPGASVKMSCKASGYTFTSYVMHWVKQKPGQGLEWIGYINPYNDGTKYNEKFKGKATLTSDKSSSTAYMELSSLTSEDSAVYYCARRKAWFAYWGQGTLVTVSA VL: DIQMTQSPASQSASLGESVTITCLASQTIGTWLAWYQQKPGKSPQLLIYAATSLADGVPSRFSGSGSGTKFSFKISSLQAEDFVSYYCQQLYSTPLTFGGGTKLEIK |  | binding result [5]: binds |

Continued, in another order:

| binding result [2] | Binder | further results |
| --- | --- | --- |
| binds | monoclonal antibody produced by mouse-mouse hybridoma 303 (antibody, V domains shown, Mouse IgG from the hybridoma) VH: VQLQQPGAEFVKPGTSVKLSCKASGYNFTRYWINWVKLRPGQGLEWIGNIYPATNGINYNEKFKSKATLTVDTFSSTAYMQLSSLASEDSGLYYCARCKTMLSRCAWFPYWGQGTLVTVSA VL: DIQMTQTTSSLSASLGDRVTINCRASQDISNYLNWYQQKPDGTVKLLIYDTSRLHSRVPSRFSGSGSGTDYSLTISNLEQEDIATYFCQQGNMLPWTFGGGTKLEIK |  |
| binds | monoclonal antibody produced by mouse-mouse hybridoma 422 (antibody, V domains shown, Mouse IgG from the hybridoma; also called antibody clone 422) VH: VQLQQSGPEVVKPGPSLRMSCKASGYFFTGNSMNWVKKTHGRSLEWIGLIDLSNGETRFNQKFKGKATLTVDKSSGTAYMELLNLTSEDSAVYYCASRSAMIMPCFSHWGQGTLVTVSA VL: DIVMTQSHNFMSTSIGDRVNITCKASQDVATAVAWFQQKPGQSPKLLIYWTSTRHTGVPDRFTGSGYGTDFTLTISHVQSEDLADYFCQQYDTYPYTFGGGTKLEIK |  |
